According to the Human Domainome abundance scans (Beltran et al. 2025):
± gives the uncertainty stated by the source.

B1: Intersectin-1, residues 909 to 971; numbered along this chain, Q15811 (parent)
chain: QGEKVEGLQAQALYPWRAKKDNHLNFNKNDVITVLEQQDMWWFGEVQGQKGWFPKSYVKLISG
B2: Chromodomain-helicase-DNA-binding protein 4, residues 444 to 496; numbered along this chain, Q14839 (parent)
chain: EDDHHMEFCRVCKDGGELLCCDTCPSSYHIHCLNPPLPEIPNGEWLCPRCTCP

Variants of: B1
Assay: abundance fitness (aPCA) (normalised: wild type 0, dead -1); higher = more abundant; growth selection in yeast, the domain comes from the species named
Conditions: Homo sapiens

Variant	abundance fitness
D21V	0.007 ± 0.051
D21Y	-0.102 ± 0.07
D21T	-0.03 ± 0.1
D21M	-0.434 ± 0.2
I32W	-0.869 ± 0.2
I32G	-0.658 ± 0.064
I32R	-0.766 ± 0.075
Q11P	-1.03 ± 0.42
Q11M	-0.119 ± 0.14
Q11T	-0.098 ± 0.13
Q11R	-0.067 ± 0.075
K50W	-0.255 ± 0.23
W52K	-0.375 ± 0.45
W52S	-1.15 ± 0.41
N22P	0.037 ± 0.2
N22W	-0.172 ± 0.14
N22V	-0.313 ± 0.11
S56Y	-0.225 ± 0.28
S56L	-0.102 ± 0.092
A10T	-0.746 ± 0.24
A10S	-0.506 ± 0.12
F43T	-0.811 ± 0.47
Q49Y	-0.303 ± 0.31
Q49R	-0.031 ± 0.081
Q49V	-0.065 ± 0.098
Q49G	-0.005 ± 0.14

Variant	abundance fitness
D39L	-0.385 ± 0.17
A12G	-0.404 ± 0.07
E6N	-0.079 ± 0.19
E6K	-0.306 ± 0.27
E45S	-0.039 ± 0.14
I61Y	-0.223 ± 0.27
I61E	-0.088 ± 0.13
W42I	-0.605 ± 0.29
W42C	-0.055 ± 0.12
W41I	-0.815 ± 0.45
K59N	-0.114 ± 0.43
K59Y	-0.378 ± 0.33
K28C	-0.172 ± 0.5
T33S	-0.104 ± 0.074
T33I	-0.213 ± 0.17
T33N	-0.233 ± 0.16
T33Y	-0.016 ± 0.29
T33L	-0.158 ± 0.16
T33M	-0.068 ± 0.36
Y57E	-0.243 ± 0.22
N27Q	-0.143 ± 0.24
K19F	0.032 ± 0.051
G7R	-0.227 ± 0.4
V46T	-0.155 ± 0.14
G2P	-0.423 ± 0.19
Q37S	-0.294 ± 0.14

Variant	abundance fitness
Q37C	-0.127 ± 0.17
Q37P	-0.289 ± 0.18
G48M	-0.226 ± 0.17
M40L	0.008 ± 0.094
M40N	0.121 ± 0.17
M40R	-0.127 ± 0.1
M40K	0.144 ± 0.22
M40Q	0.052 ± 0.34
L8S	-0.117 ± 0.11
L8E	-0.003 ± 0.11
E3A	-0.293 ± 0.13
L24P	-0.383 ± 0.2
K4P	-0.29 ± 0.27
V58T	-0.395 ± 0.15
G63S	-0.278 ± 0.15
G63I	-0.151 ± 0.35
A18G	0.043 ± 0.049
A18C	-0.189 ± 0.07
P15R	-0.018 ± 0.077
P15D	-0.156 ± 0.17
Q38V	-0.302 ± 0.12
Q38M	-0.061 ± 0.16
L60K	-0.1 ± 0.11
L60G	-0.18 ± 0.056
L60R	-0.119 ± 0.087
G51S	-0.988 ± 0.3

Variant	abundance fitness
H23Y	-0.171 ± 0.13
E36Q	-0.344 ± 0.34
E36T	-0.149 ± 0.18
G44A	-1.03 ± 0.34
G44T	-0.604 ± 0.28
Y14R	-0.052 ± 0.084
Y14K	-0.098 ± 0.15
W16K	-0.427 ± 0.18
V5Q	-0.029 ± 0.14
V5H	-0.657 ± 0.31
Q9A	-0.07 ± 0.092
Q9G	-0.331 ± 0.071
Q9M	0.095 ± 0.17
P54D	-0.721 ± 0.27
F26G	-1.02 ± 0.19
F26Q	-1 ± 0.21
F53V	-0.677 ± 0.29
V31R	-0.03 ± 0.028
V31L	-0.022 ± 0.028
L13S	-0.412 ± 0.2
L13C	-0.268 ± 0.28
D30T	-0.15 ± 0.039
D30S	-0.259 ± 0.037
L35G	-0.033 ± 0.16

Variants of: B2
Assay: as above
Conditions: Homo sapiens

Variant	abundance fitness
D3Y	0.319 ± 0.069
D3R	0.06 ± 0.038
D3V	-0.174 ± 0.05
D3T	0.277 ± 0.05
D3W	0.201 ± 0.045
D3K	0.304 ± 0.073
D3A	-0.211 ± 0.045
D3P	-0.174 ± 0.064
D3E	-0.187 ± 0.057
D3G	-0.292 ± 0.057
D3L	0.342 ± 0.046
D3M	0.397 ± 0.065
D3I	0.393 ± 0.069
D3H	0.1 ± 0.075
D3S	0.105 ± 0.049
D3Q	0.221 ± 0.062
D3C	0.27 ± 0.068
H4F	0.301 ± 0.064
H4I	0.025 ± 0.056
H4V	-0.008 ± 0.042
H4A	-0.14 ± 0.042
H4Q	-0.058 ± 0.055

Variant	abundance fitness
H4N	0.197 ± 0.058
H4T	-0.004 ± 0.041
H4R	-0.04 ± 0.051
H4L	-0.162 ± 0.043
H4W	-0.126 ± 0.059
H4E	-0.126 ± 0.048
H4K	0.119 ± 0.058
H4S	-0.409 ± 0.045
H4D	0.125 ± 0.091
H4P	-0.294 ± 0.04
H4M	0.107 ± 0.046
H4C	0.032 ± 0.042
E1G	-0.289 ± 0.046
E1M	0.156 ± 0.28
E1S	-0.507 ± 0.18
E1L	-0.235 ± 0.078
E1F	-0.306 ± 0.38
E1Q	-0.486 ± 0.16
E1P	-0.436 ± 0.22
E1V	-0.059 ± 0.054
E1D	-0.693 ± 0.1
E1Y	-0.175 ± 0.1

Variant	abundance fitness
E1A	-0.531 ± 0.13
E1N	0.354 ± 0.27
E1R	-0.625 ± 0.28
E1W	-0.898 ± 0.43
E1I	-0.265 ± 0.35
E1T	-0.221 ± 0.19
D2Y	0.016 ± 0.076
D2G	0.26 ± 0.082
D2A	0.05 ± 0.057
D2H	-0.036 ± 0.057
D2K	0.378 ± 0.043
D2M	0.278 ± 0.077
D2L	0.163 ± 0.05
D2E	0.188 ± 0.073
D2R	0.033 ± 0.065
D2S	0.202 ± 0.045
D2W	-0.334 ± 0.093
D2N	0.091 ± 0.056
D2C	-0.425 ± 0.13
D2F	0.463 ± 0.069
D2V	0.217 ± 0.059
